This note sets out measurements from patent publication US20100272723A1 (Xencor, published 2010).

For test [1], the target named is T1, human CD19 (human, UniProt P15391 20-556).
T1 construct: also called B-cell surface antigen B4; B-cell antigen CD19
T1 sequence: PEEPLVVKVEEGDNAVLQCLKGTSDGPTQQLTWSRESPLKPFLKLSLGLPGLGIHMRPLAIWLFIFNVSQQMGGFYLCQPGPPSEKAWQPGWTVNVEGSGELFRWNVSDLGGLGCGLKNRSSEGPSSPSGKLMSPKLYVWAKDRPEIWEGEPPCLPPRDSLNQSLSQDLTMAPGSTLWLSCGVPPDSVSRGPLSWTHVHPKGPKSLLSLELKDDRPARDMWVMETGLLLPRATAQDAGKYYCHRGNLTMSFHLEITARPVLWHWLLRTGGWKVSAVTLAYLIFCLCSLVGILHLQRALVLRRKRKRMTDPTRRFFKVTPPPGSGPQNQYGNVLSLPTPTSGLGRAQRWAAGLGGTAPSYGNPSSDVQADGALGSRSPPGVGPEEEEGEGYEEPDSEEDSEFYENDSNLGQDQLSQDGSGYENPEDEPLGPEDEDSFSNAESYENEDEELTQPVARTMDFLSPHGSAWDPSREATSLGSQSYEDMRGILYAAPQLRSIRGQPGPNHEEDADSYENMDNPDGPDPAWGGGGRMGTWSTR
Nature of the test: DELFIA competition on Raji cells: unlabeled antibody competes with Eu-labeled anti-CD19 for surface CD19 [lower panel].

The target in test [2] is T1, human CD19. Nature of the test: flow cytometry, binding to CD19 on RS4;11 cells, MFI against Log[Ab], nM.
The target in test [3] is T2, FcγRIIa - R131 (human, UniProt P12318).
T2 construct: soluble His-tagged receptor; also called R131 FcγRIIa (FcγR-His)
T2 sequence (receptor chain, looked up): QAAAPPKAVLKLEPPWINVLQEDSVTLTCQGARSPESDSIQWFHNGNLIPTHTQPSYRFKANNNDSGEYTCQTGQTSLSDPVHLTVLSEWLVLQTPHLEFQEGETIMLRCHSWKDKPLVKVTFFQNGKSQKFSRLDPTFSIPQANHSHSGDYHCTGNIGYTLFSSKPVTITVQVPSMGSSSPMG
Put plainly: Biacore SPR: IgG captured on protein A/G (CM5 chip), FcγR-His injected; KD from 1:1 group fit, plotted as -log(KD). As to the method: (§1) Briefly, protein A/G was coupled to a flow cell of a CM5 chip. IgG was first diluted to 25 nM and immobilized to protein A/G channel to ˜1000 RUs. FcγR-His was serially diluted and injected at […] for 2 min followed by dissociation for 3 min. To determine KD the resulting sensorgrams are “group-fitted” using the 1:1 interaction model available in BlAevaluation software.

The target in test [4] is T3, FcγRIIa - H131 (human, UniProt P12318).
T3 construct: soluble His-tagged receptor; also called H131 FcγRIIa (FcγR-His)
T3 sequence (receptor chain, looked up): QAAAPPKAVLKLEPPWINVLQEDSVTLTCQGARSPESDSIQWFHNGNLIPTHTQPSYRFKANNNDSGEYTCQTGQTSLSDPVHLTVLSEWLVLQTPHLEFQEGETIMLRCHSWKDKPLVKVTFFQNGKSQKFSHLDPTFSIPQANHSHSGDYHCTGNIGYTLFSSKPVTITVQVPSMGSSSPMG
The description is as above. As for the experimental part:
as §1

Test [5] has as its target T4, human V158 FcγRIIIa (FcγR-His) (human, UniProt P08637 17-208, limits assumed).
T4 construct: Soluble His-tagged receptor injected as analyte in Biacore; not shown: His tag ('FcγR-His')
Put plainly: Biacore SPR; IgG captured on protein A/G, FcγR-His injected; 1:1 model. As to the method:
as §1

The target in test [6] is T1, human CD19. Nature of the test: DELFIA time-resolved fluorometry competition on Raji cells; competitor tracer is Eu-labeled anti-CD19 (H0L0). As for the experimental part:
Affinities of enhanced effector function anti-CD19 variants were determined by using the DELFIA® system (PerkinElmer Life Sciences) which is based on Time-Resolved Fluorometry (TRF). […] The assay is essentially applied as a competition assay for screening anti-CD19 antibodies of different affinities.

Test [7] addresses T4, human V158 FcγRIIIa (FcγR-His). Put plainly: Biacore SPR; IgG captured on protein A/G, FcγR-His injected; reference is 4G7 IgG1 (WT). As for the experimental part:
as §1

Test [8] has as its target T5, human F158 FcγRIIIa (FcγR-His) (human, UniProt P08637 17-208, limits assumed).
T5 construct: Soluble His-tagged receptor injected as analyte in Biacore; not shown: His tag ('FcγR-His')
Nature of the test: Biacore SPR; IgG captured on protein A/G, FcγR-His injected; 1:1 model. As to the method: as §1

The target in test [9] is T1, human CD19. Nature of the test: DELFIA competition on Raji cells: unlabeled antibody competes with Eu-labeled anti-CD19 for surface CD19 [upper panel].

T4 sequence (P08637 17-208 F176V limits assumed): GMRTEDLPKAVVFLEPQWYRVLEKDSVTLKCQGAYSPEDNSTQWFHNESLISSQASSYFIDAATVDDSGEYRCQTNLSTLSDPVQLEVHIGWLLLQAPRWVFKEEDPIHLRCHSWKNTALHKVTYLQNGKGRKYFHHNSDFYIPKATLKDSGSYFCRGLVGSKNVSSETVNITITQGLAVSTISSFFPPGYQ
T5 sequence (P08637 17-208 limits assumed): as the sequence (P08637 17-208 F176V limits assumed) above, with V160F counted along it

B1: H1L3 (antibody, V domains shown)
VH: EVQLVESGGGLVKPGGSLKLSCAASGYTFTSYVMHWVRQAPGKGLEWIGYINPYNDGTKYNEKFQGRVTISSDKSISTAYMELSSLRSEDTAMYYCARGTYYYGSRVFDYWGQGTLVTVSS
VL: DIVMTQSPATLSVSPGERATISCRSSKSLLNSNGNTYLYWFLQKPGQSPQLLIYRMSNLASGVPDRFSGSGSGTDFTLTISRVEAEDVGVYYCMQHLEYPFTFGAGTKLEIK
notes: also called 4G7 H1L3
Take B1: the “IC50 (read off the curve)” value in test [1] is around 20 nM.

B2: H2L3 (antibody, V domains shown)
VH: QVQLQESGSGLVKPGGSLRLSCAASGYTFTSYVMHWVRQAPGKGLEWMGYINPYNDGTKYNESLKSRVTISSDKSISTAYMELSSLRAEDTAVYYCARGTYYYGSRVFDYWGQGTLVTVSS
VL: DIVMTQSPATLSVSPGERATISCRSSKSLLNSNGNTYLYWFLQKPGQSPQLLIYRMSNLASGVPDRFSGSGSGTDFTLTISRVEAEDVGVYYCMQHLEYPFTFGAGTKLEIK
notes: also called 4G7 H2L3
For the molecule B2, in test [1], the binding result was “binds”.

B3: H4L3 (antibody, V domains shown)
VH: EVQLQQSGPEVKKPGTSVKVSCKASGYTFTSYVMHWVRQAPGKGLVWVSYINPYNDGTKYNESLKSRVTISSDKSISTAYLQMNSLRAEDTAVYYCARGTYYYGSRVFDYWGQGTLVTVSS
VL: DIVMTQSPATLSVSPGERATISCRSSKSLLNSNGNTYLYWFLQKPGQSPQLLIYRMSNLASGVPDRFSGSGSGTDFTLTISRVEAEDVGVYYCMQHLEYPFTFGAGTKLEIK
notes: also called 4G7 H4L3
With B3, the binding result in test [1] is recorded as “binds”.

B4: H3L3 (antibody, V domains shown)
VH: EVQLVESGGGLVQPGRSLRLSCAASGYTFTSYVMHWVRQMPGKGLEWMGYINPYNDGTKYNEKFQGRVTITSDKSTSTAYMELSRLRSDDTAVYYCARGTYYYGSRVFDYWGQGTLVTVSS
VL: DIVMTQSPATLSVSPGERATISCRSSKSLLNSNGNTYLYWFLQKPGQSPQLLIYRMSNLASGVPDRFSGSGSGTDFTLTISRVEAEDVGVYYCMQHLEYPFTFGAGTKLEIK
notes: also called 4G7 H3L3
For the molecule B4, the “IC50 (read off the curve)” value in test [1] is around 20 nM.

B5: 4G7 H1L1 Hybrid S239D/I332E (antibody, human IgG1, kappa, V domains shown)
VH: EVQLVESGGGLVKPGGSLKLSCAASGYTFTSYVMHWVRQAPGKGLEWIGYINPYNDGTKYNEKFQGRVTISSDKSISTAYMELSSLRSEDTAMYYCARGTYYYGSRVFDYWGQGTLVTVSS
VL: DIVMTQSPATLSLSPGERATLSCRSSKSLLNSNGNTYLYWFQQKPGQSPQLLIYRMSNLASGVPDRFSGSGSGTEFTLTISSLEPEDFAVYYCMQHLEYPFTFGAGTKLEIKR
notes: also called H1L1 mAb
B5: the “EC50 (read off the curve)” value in test [2] was around 6 nM.

B6: H3L2 (antibody, V domains shown)
VH: EVQLVESGGGLVQPGRSLRLSCAASGYTFTSYVMHWVRQMPGKGLEWMGYINPYNDGTKYNEKFQGRVTITSDKSTSTAYMELSRLRSDDTAVYYCARGTYYYGSRVFDYWGQGTLVTVSS
VL: DIVMTQSPSSLSASVGDRVTISCRSSKSLLNSNGNTYLYWFQQKPGQSPQLLIYRMSNLASGVPDRFSGSGSGTEFTLTISSLQPEDVAVYYCMQHLEYPFTFGAGTKLEIK
notes: also called 4G7 H3L2
On to B6, for which the “IC50 (read off the curve)” value in test [1] was around 10 nM.

B7: 4G7 IgG1 (chimeric: murine 4G7 H0/L0 variable regions, human IgG1 and kappa constant regions) (antibody)
heavy: not shown
light: DIVMTQAAPSIPVTPGESVSISCRSSKSLLNSNGNTYLYWFLQRPGQSPQLLIYRMSNLASGVPDRFSGSGSGTAFTLRISRVEAEDVGVYYCMQHLEYPFTFGAGTKLELKRTVAAPSVFIFPPSDEQLKSGTASVVCLLNNFYPREAKVQWKVDNALQSGNSQESVTEQDSKDSTYSLSSTLTLSKADYEKHKVYACEVTHQGLSSPVTKSFNRGEC
notes: also called 4G7 IgG1 antibody; WT IgG1 antibody; copies: 2 + 2
Consider B7, for which the binding result in test [3] and in [4] was “binds” in each case. The molecule further yielded a Kd in [5] of around 240 nM.

B8: 4G7 Hybrid S239D/I332E (murine 4G7 H0/L0 variable regions, hybrid IgG1/IgG2 constant region with S239D/I332E) (antibody)
heavy: EVQLQQSGPELIKPGASVKMSCKASGYTFTSYVMHWVKQKPGQGLEWIGYINPYNDGTKYNEKFKGKATLTSDKSSSTAYMELSSLTSEDSAVYYCARGTYYYGSRVFDYWGQGTTLTVSSASTKGPSVFPLAPSSKSTSGGTAALGCLVKDYFPEPVTVSWNSGALTSGVHTFPAVLQSSGLYSLSSVVTVPSSSLGTQTYICNVNHKPSNTKVDKKVEPKSCDKTHTCPPCPAPELLGGPDVFLFPPKPKDTLMISRTPEVTCVVVDVSHEDPEVQFNWYVDGVEVHNAKTKPREEQFNSTFRVVSVLTVVHQDWLNGKEYKCKVSNKALPAPEEKTISKTKGQPREPQVYTLPPSREEMTKNQVSLTCLVKGFYPSDIAVEWESNGQPENNYKTTPPMLDSDGSFFLYSKLTVDKSRWQQGNVFSCSVMHEALHNHYTQKSLSLSPGK
light: DIVMTQAAPSIPVTPGESVSISCRSSKSLLNSNGNTYLYWFLQRPGQSPQLLIYRMSNLASGVPDRFSGSGSGTAFTLRISRVEAEDVGVYYCMQHLEYPFTFGAGTKLELKRTVAAPSVFIFPPSDEQLKSGTASVVCLLNNFYPREAKVQWKVDNALQSGNSQESVTEQDSKDSTYSLSSTLTLSKADYEKHKVYACEVTHQGLSSPVTKSFNRGEC
notes: also called effector function enhanced anti-CD19; enhanced effector function anti-CD19; copies: 2 + 2
As to B8, the EC50 in [6] turned out to be 1.2 nM. Besides, the “affinity enhancement relative to WT” value in [7] was around 50 fold. Further, the binding result in [3] and in [4] was “binds” each time. The equilibrium dissociation constant (Kd) in test [8] is around 16.7 nM; in [5] it was around 4.7 nM.

B9: H0L0 (antibody)
heavy chain: EVQLQQSGPELIKPGASVKMSCKASGYTFTSYVMHWVKQKPGQGLEWIGYINPYNDGTKYNEKFKGKATLTSDKSSSTAYMELSSLTSEDSAVYYCARGTYYYGSRVFDYWGQGTTLTVSS
light chain: DIVMTQAAPSIPVTPGESVSISCRSSKSLLNSNGNTYLYWFLQRPGQSPQLLIYRMSNLASGVPDRFSGSGSGTAFTLRISRVEAEDVGVYYCMQHLEYPFTFGAGTKLELK
notes: original 4G7 variable regions; also called 4G7 H0L0
For B9, the figures for the “IC50 (read off the curve)” value in test [1] and in test [9] were around 8 nM and around 5 nM, respectively.

B10: H4L0 (antibody, V domains shown)
VH: EVQLQQSGPEVKKPGTSVKVSCKASGYTFTSYVMHWVRQAPGKGLVWVSYINPYNDGTKYNESLKSRVTISSDKSISTAYLQMNSLRAEDTAVYYCARGTYYYGSRVFDYWGQGTLVTVSS
VL: DIVMTQAAPSIPVTPGESVSISCRSSKSLLNSNGNTYLYWFLQRPGQSPQLLIYRMSNLASGVPDRFSGSGSGTAFTLRISRVEAEDVGVYYCMQHLEYPFTFGAGTKLELK
notes: also called 4G7 H4L0
Take B10: the “IC50 (read off the curve)” value in [1] is around 10 nM.
